Reference: patent US20250049939A1, “NOVEL FLT3 ANTIBODIES AND ANTIBODY-DRUG-CONJUGATES BASED THEREON, THERAPEUTIC METHODS AND USES THEREOF IN COMBINATION WITH TYROSINE KINASE INHIBITORS” (TUBULIS GmbH, priority 2021, published 2025)

T1: recombinant human FLT3 (Homo sapiens, UniProt P36888)
T1 construct: purchased Sino Biological 10445-H08H
T1 sequence (P36888 27-541 limits assumed): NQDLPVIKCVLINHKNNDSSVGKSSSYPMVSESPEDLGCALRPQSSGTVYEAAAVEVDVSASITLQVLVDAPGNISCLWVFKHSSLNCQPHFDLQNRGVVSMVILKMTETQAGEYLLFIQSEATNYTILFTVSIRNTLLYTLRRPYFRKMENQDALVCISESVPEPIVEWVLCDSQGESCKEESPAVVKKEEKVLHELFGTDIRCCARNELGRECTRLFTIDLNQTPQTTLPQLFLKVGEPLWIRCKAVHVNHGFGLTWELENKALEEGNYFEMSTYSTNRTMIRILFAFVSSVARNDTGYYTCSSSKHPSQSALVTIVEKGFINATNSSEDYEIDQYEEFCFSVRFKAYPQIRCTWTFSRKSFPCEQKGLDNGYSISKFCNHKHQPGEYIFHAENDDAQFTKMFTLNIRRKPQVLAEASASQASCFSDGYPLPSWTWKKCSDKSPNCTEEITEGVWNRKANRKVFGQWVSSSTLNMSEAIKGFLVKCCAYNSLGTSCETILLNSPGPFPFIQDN


Molecular target: T1, recombinant human FLT3
Test: ELISA affinity to recombinant human FLT3
Format: binding
Conditions: chimeric Ab clones
Source text: FIG. 1: Evaluation of epitope specificity and internalization capability of anti-FLT3 monoclonal antibodies. (A) Affinity of seven anti-FLT3 monoclonal antibody (mab) clones to recombinant human FLT3 measured in enzyme-linked immunosorbent assay (ELISA) normalized to the binding of the antibodies to BSA control. […] (B) Schematic FLT3 receptor. Black arrows indicate common mutations and blue arrows indicate the three identified epitopes of seven anti-FLT3 antibodies analyzed in linear epitope mapping by PEPperPRINT. Figure was created with BioRender.com. (C) Binding and temperature induced internalization of anti-FLT3 antibodies in Ba/F3 cells expressing human wildtype FLT3. Internalization was induced by incubation for 30 min at 37° C. (grey) compared to 4° C. (black). Remaining surface-bound antibody was detected in flow cytometry. MFI was normalized to control human IgG1 binding. MFI=mean fluorescence intensity. […] (D) Cell surface binding of 20D9 mab or control human IgG1 antibody to Ba/F3 cells stably expressing pMIY (Ba/F3-pMIY) empty vector (ev), human wildtype (hFLT3 wt) or ITD mutant human FLT3 (hFLT3ITD) was measured in flow cytometry. Mean±s.d. of n=3. (E) Temperature induced internalization of 4B12 mab in MOLM-13 (FLT3 positive) cells after 30 min incubation at 37° C. compared to 4° C. and HL-60 (FLT3 negative) after 37° C. incubation assessed in immunofluorescence staining. Red=FLT3 staining by 4B12, Green=membrane staining by Vybrant DiO, Blue=nuclear staining by DAPI. Scale bar 5 μm. Representative pictures are shown. (F) Cell surface binding of 20D9 mab or control hIgG1 antibody to Ba/F3-pMIY ev, hFLT3 wt, murine (mFLT3 wt) or cynomolgues monkey FLT3 (cynoFLT3 wt) was measured in flow cytometry. Mean±s.d. of n=3. (G) Cell surface binding of 20D9 mab or control hIgG1 antibody to Ba/F3-PMIY ev, hFLT3 wt or epitope mutant FLT3 (hFLT3/S50P/P54R) measured in flow cytometry. Mean±s.d. of n=3. (H) Cell surface binding of 20D9 mab or control hIgG1 antibody to Ba/F3-PMIY ev, hFLT3 wt or human CD64 (hCD64) measured in flow cytometry. Mean±s.d. of n=3.
Maxisorp plates were coated with human recombinant FLT3 protein (10445-H08H, Sino Biological). Chimeric (20D9) or humanized anti-FLT3 monoclonal antibodies (in house) and secondary alkaline phosphatase conjugated rabbit anti-human IgG antibody (309-055-008, Jackson Immunoresearch) were used. For detection, Attophos Fluorescent Substrate System (S1000, Promega) was applied. The fluorescence was read with excitation of 405 nm and emission at 500-550 nm. The calculation of the dissociation constant KD was performed using GraphPad Prism version 9.4.0.

| Affinity Kd [µg/mL] | Molecule |
| --- | --- |
| 0.03191 | 4B12: chimeric anti-FLT3 antibody from rat; VH SEQ ID NO: 9, VL SEQ ID NO: 10 (antibody, V domains shown, Clone 4B12, heavy chain variable region without a signal sequence; Clone 4B12, light chain variable region without a signal seqeunce) VH: QVQLQQSGPGLVQPSQTLSLTCTVSGFSLTSYNVNWVRQPPGKGLEWIGAMWRGGGTDYNPALKSRLSISRDTSKSQVFLKMNRLQTEDTAIYFCTRGFGDYWGQGVMVTVSSA VL: DIQMTQTPLSLSVAIGQSASISCKSSQSLKYSDGKTYLNWVFQSPGQSPKRLIYQVSKLDSGVPDRFSGTGSETDFTLKISRVEAEDLGVYYCCQGSYSPSTFGAGTKLELKR |
| 0.02188 | 20D9: chimeric (rat variable regions, human IgG1) anti-FLT3 monoclonal antibody; VH SEQ ID NO: 5, VL SEQ ID NO: 6 (antibody, V domains shown, Clone 20D9, heavy chain variable region without a signal seqeunce; Clone 20D9, light chain variable region without a signal seqeunce) VH: DVMLVESGGGLVQPGRSLKLSCVASGFTFNNYWMTWIRQAPGKGLEWIASITKTGGGTYYPDSVKGRFTISRDNAKSTLYLQMNSLRSEDTATYYCTTLQQLGVMDAWGQGASVTVSSA VL: DVQMTQSPSVLSASVGDRITLNCKASQNINKELNWYQQKLGEAPKLLIYNTNNLQTGIPSRFSGSGSGTDYTLTISSLQPEDVATYFCFQHKSWPLTFGSGTKLEIKR |
